Test results taken from the DeepSol protein solubility set.

Assay: soluble on expression in E. coli; label from the status in PepcDB or PDB records

Sequence | soluble on expression in E. coli
QDSTSDLIPAPPLSKVPLQQNFQDNQFHGKWYVVGLAGNRILRDDQHPMNMYATIYELKEDKSYNVTSVISSHKKCEYTIATFVPGSQPGEFTLGNIKSYGDKTSYLVRVVSTDYNQYAVVFFKLAEDNAEFFAITIYGRTKELASELKENFIRFSKSLGLPENHIVFPVPIDQCIDG | soluble
MSDAFTDVAKMKKIKEDIRAHEGQLVELTLENGRKREKNKIGRLIEVYSSLFIIEYSDSSDTPGAIDNSYVESYTYSDILTEKTLIRYLD | not soluble
MGSDKIHHHHHHMTQTPKPPLTIYLAAPRGFCAGVDRAIKIVEMALEKWGAPVFVRHEIVHNKYVVDDLKAKGAVFVEELSDCPDDRPVIFSAHGVPKSVPQAAAARQMVYVDATCPLVSKVHIEAQRHSDNGLQMVMIGHKGHPETIGTMGQLPDGEVLLVETVEDVATVEVRDPSRLAFVTQTTLSVDDTIEIVEALTTRFPAIVGPHKEDICYATTNRQEAVKAMAPKAEAMLVVGAPNSSNSKRLVEVGSRAGCAYSQLVQRAADIDWRALGDIKTLGITAGASAPEVLIEEVIQAFEDRFDVTRELVETAVENVEFKVPRVLRETA | not soluble
MNASQPPPGGRLPDEVFRKITAVDQGQSTLTQSGIQGLSARTLSSEPRGDLVFQLVEIIKKPGQSLGLYLREGNGKDRSDGVFVSRFGDNSELAKYGEVMRPGDEILTINNVEVSMMSIDDVVLILSIPRRLLLRIRYSKSMRHEIISSRSRESERPVVVFHKYDDRRDSETNAPILSQPTSTANTWLGKKSRQQMEEMRNATTSSTLRTHASTSSPRNHFAPRLVNGHSHSIGVPSASTTSHDHQYQRFASEPSDSVSRTARVPPPRLASATVRRTESFNSAPGVSTSAPMYTLPRSSTAVPPPDILGSIPYSARDPLMRSSADLPYDPMTGRLSSSVPTDPLLSRSLCSPILPRTLRQANDSNKSNSLPRRRIMTGGRNVKWRNDVVSTSDLCGEESDGAISAPEYSSPPFSRLTQQQQFRLSNGSPGRTVNDIFSAAEYRNWAGPYDPRGMYGPFPPGQRATRWSHTYGEQRAPRTSSLPGRTVLAQSLVGSPVLPRHPPPIVQDRPSAVFDRYHVSPLMNRRAPLRAAGPGINVDRLSVSSLTGILYVHIVEGRGLKIPEKQKGLTEEMYCVLEVDEQHRARTGVSTIEQKFKWRETFHIDVVNATVSNFFVYSWHPQFRHKLCHKGSLKLLEAFVVDQLNDDRVFALNLEPRGQLIVRIGFHDLQAVFRRTVNPRLNGVFGISLSRLVQRERRDTPIVLTRLIQEIEKRGVDYSGLYVLCGSVEKKKMLRAELESNPLGTELAAESIPDTNVIACLIKDFLRELPEPLISPQIHGMLLEAASVALPNDVQTNRHLVLKIIDCLQLSAKNCLLLVLDHLSTVLCSSPHNGLTPTRLSLIFAPLLFFCLDTFSPYTISPTSKMAAVRTLDINQASSSLQMILSIWPSRVSELVEFFPFLLNYPTVSYSSPNPHSESGSDSPATTCQKGGVIAYVSESQC | not soluble
MGSDKIHHHHHHMSSPSLGTEQVFPQQALLDPVLLRAFVAVADSGSFTRAAAATHLTQSTVSQQLKRLEQQLGCELLSRKGRYAMPTADGERLLGYARQILALMAEAGMTPAQPPLLRLAVAEDFAGTALMPILKKLITRFPSVKLEVQSGLSKPLYQAFQEGVVELALIKQRQGEHPAKACWPEALSWLAAADWQAVKAGEPVPLIAFPAGGLYRNEMAQLLDEAGIPWRLVYSSNSLEGVLCAVAAGMGVSLLPSRFIRAREHREITALPRATAMELALHLASSPGAELQWLADEIGAYCDRLSSGGSSVSCPNTSA | not soluble
MPRLALRQYNFYYRVNGEKAEELLKEYGEDGDFLLRYSESNPQNFSISVRVAEDKILHIKVTKYESDMLSIFEDERTTPNQFGSITELAEFYMEFPEKLREKNGLFLELKKPVYVPYHLEACAEEQRRTQLYRWWHGNLPASSANKLLQTEKNGTYLLRASQHIPGALVISAKTEGQVVHLTIYQDPSTGRFNIDGDRTKFQSAWLLIDSYSKNPIVEKGEASRVLYLEEPLFNTFIEADLFVDRFEIIRRPINPRESMEKTGISEEFDRLSQEALPAEQYLSKREGRRPVNAEKNRYKNIVPFDHTRVILTDRPNTPGSDYINASYVRFENSQRTKNVTFACEKSFIATQGCLETTISDFWSMVWQENSRVIVMPTMENERKEKCARYWPAEVNKPEVHGDISLTCTIERKVQRAVSDEVKAELEQEKTNRIAKGLVPEAELNGDGISYILRTLVMKKGKDTREIRQLQYLTWPDHGCPLHPYAVLNFLEDVDREYDYFNAQPIAASLPQGPIVVHCSAGIGRTGTVLVLDALLNQVKKVGLLCPMDVYKMVKYVRTYRSGLVQTEQQYQFLYKALAFYLKNNNPYPVKSFIDGDTDAFDFPRRLRPTPNASRPSSARQVTSSRPSSSASSRTSHSRPRTGPQAEPIFERSTSSTSSSSTLLKSTKK | not soluble
MAHHHHHHSLIDLHIHSNYSDGQGSVEEIARRAKERGLKAIAIVDHSIELPFGLTEKKARMREIEIENAASLYGIKIYSGIECSINAAGEIVLPDFDFDFIIASVHEFVYGQAYYERVIRCLESHDVDVLGHPFSPLFGFDGRLAEMDEKLLDVVEERGVAVELNSSHKSPQDEFLQLCRDRKIAYSIGSDAHSLSGVGEVGWSVEKAKRYMAGAKLFTPEG | not soluble
MSLGDLEQKIIAMDLWHLALPVVSARDHGIGRVEGSCEIVVLRLVAEGGAEGFGEASPWAVFTGTPEASYAALDRYLRPLVIGRRVGDRVAIMDEAARAVAHCTEAKAALDSALLDLAGRISNLPVWALLGGKCRDTIPLSCSIANPDFDADIALMERLRADGVGLIKLKTGFRDHAFDIMRLELIARDFPEFRVRVDYNQGLEIDEAVPRVLDVAQFQPDFIEQPVRAHHFELMARLRGLTDVPLLADESVYGPEDMVRAAHEGICDGVSIKIMKSGGLTRAQTVARIAAAHGLMAYGGDMFEAGLAHLAGTHMIAATPEITLGCEFYQASYFLNEDILETPFRVEAGQVIVPDGPGLGARADPEKLEHYAVRRSGEGHHHHHH | soluble
MGSDKIHHHHHHMKESLISFIKEKIEEYNYRGAVVGVSGGVDSAVVLSLCVQALGKDRVFALILPERDSSKDSLKDAVDFCERLGVEYRKRSITPILRKIGVYRLFPPRLFLPDSIVKRYVLNRWNTLSKDPFLDDLRNTGPEEFLKGLAYYRIKHRIRMCLLYFEAEKRGYAVVGTTNRTEYLTGLYVKWGDEAVDIEPIMHLYKTQVFELAKEMNVPEKILKKPPSPDLIPGITDEMAFNMSYLELDRILMKLEKNEDLSDEDPKKVERVKKILELSEKYRRDIPITFDRI | not soluble
MAKRILCFGDSLTWGWVPVEDGAPTERFAPDVRWTGVLAQQLGADFEVIEEGLSARTTNIDDPTDPRLNGASYLPSCLATHLPLDLVIIMLGTNDTKAYFRRTPLDIALGMSVLVTQVLTSAGGVGTTYPAPKVLVVSPPPLAPMPHPWFQLIFEGGEQKTTELARVYSALASFMKVPFFDAGSVISTDGVDGIHFTEANNRDLGVALAEQVRSLL | soluble
FHPHTKGSQILMDLSHKAVKRQASFCNAITFSNRPVLIYEQVRLKITKKQCCWSGALRLGFTSKD | not soluble
MESHENPGMFSRLLRLFHRENGDQGETRPRQKEFGILSYEKGRMKSFWGRHVSAGKTSSQSCNITNHMKNMNKLEDMKFYIRKINAEREELFRILDIDMNTDLNYSIRHTHLLKKCNQLKKKVRMLLNENRKLLVEQADQEASFGEEKSSVMRPARTYIPSAKQQQV | not soluble
MQCYSIVGINYIQIYKAVTRNGIKHNIVVIKNSDYIFTITHYSPRTEYWTIVGNTDRQFYDANVLHNCLYIIGGMINNRHVYSVSRVDLKTKKWKTVTNMSSLKSEVSTCVNDGKLYVIGGLEFSISTGIAEYLKHGTSKWKRLPNLITPRYSGASVFVNDDIYVMGGVYTTMRNM | not soluble
GMIPFPESRLAAQMSFVVEIDKLKTILRQTLLTDSSRRENDAEHSWHIATMAFLLAEYADEAVQIGRVARMLLIHDIVEIDAGDTFIHDEAGNEDKEERERKAAARLFGLLPPDQAAEYSALWQEYEARETADARFADALDRLQPLLHNFETEGGTWKPHGVTRAKVDKLLPRIEAGSKRLGAYARALVDEAVRRGYLAP | soluble
GSMLGMIRNSLFGSVETWPWQVLSTGGKEDVSYEERACEGGKFATVEVTDKPVDEALREAMPKIMKYVGGTNDKGVGMGMTVPVSFAVFPNEDGSLQKKLKVWFRIPNQFQGSPPAPSDESVKIEEREGITVYSTQFGGYAKEADYVAHATQLRTTLEGTPATYQGDVYYCAGYDPPMKPYGRRNEVWLVKA | soluble
